Earlier results as cited in patent US20120122716A1, “CELL LINE DERIVED FROM THE EPITHELIAL LINING OF THE HUMAN ENDOLYMPHATIC SAC IN THE INNER EAR” (priority 2010, published 2012).

System: beta defensin 2
Conditions: HMEEC-1 cells; via Src-dependent Raf-MEK1/2-ERK signaling pathway

B1: IL-1α: interleukin 1 alpha, cytokine (protein, UniProt P01583 113-271, looked up)
Interleukin-1 alpha: SAPFSFLSNVKYNFMRIIKYEFILNDALNQSIIRANDQYLTAAALHNLDEAVKFDMGAYKSSKDDAKITVILRISKTQLYVTAQDEDQPVLLKEMPEIPKTITGSETNLLFFWETHGTKNYFTSVAHPNLFIATKQDYWVCLAGGPPSITDFQILENQA
- beta defensin 2 expression: up-regulate
